Tests used:
[1] = target: SNO-SP-D in BAL from mice overexpressing SP-D, after treatment with S-nitrosocysteine (not stated (in BAL of SP-D overexpressing mice)) (UniProt P50404); assay: SEC; BAL from SP-D overexpressing mice with or without SNOC, 0.75 mg total protein in 250 μl; Superdex 200 HR 10/30, 0.3 ml/min, 25 mM HEPES pH 7.25, 150 mM NaCl; fractions analysed by SDS-PAGE and Western blot for SP-D
[2] = target: the molecule itself; assay: non-reducing SDS-PAGE with Western blot; recombinant proteins denatured without thiol reductant, SDS-PAGE, Western blot with SP-D antibody; shows only oligomers that survive SDS (disulfide-linked)

SNO-SP-D in BAL from mice overexpressing SP-D, after treatment with S-nitrosocysteine, sequence (P50404 20-374): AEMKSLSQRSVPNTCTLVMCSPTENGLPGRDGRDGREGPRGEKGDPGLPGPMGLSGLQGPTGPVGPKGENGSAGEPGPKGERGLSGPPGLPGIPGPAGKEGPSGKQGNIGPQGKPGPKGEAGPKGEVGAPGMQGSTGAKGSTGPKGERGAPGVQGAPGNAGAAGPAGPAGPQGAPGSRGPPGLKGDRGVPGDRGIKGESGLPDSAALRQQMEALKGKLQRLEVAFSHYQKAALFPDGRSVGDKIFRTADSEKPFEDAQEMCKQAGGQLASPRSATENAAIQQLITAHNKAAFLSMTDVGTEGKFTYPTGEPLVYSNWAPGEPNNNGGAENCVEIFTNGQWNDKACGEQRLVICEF

stoichiometry N [1]	Molecule	stoichiometry N [2]
3	SNO-SP-D in BAL from mice overexpressing SP-D, after treatment with S-nitrosocysteine (from UniProt P50404 20-374) (natural protein)	
	rat recombinant SP-D (surfactant protein D) (natural protein, UniProt P35248 20-374, looked up, surfactant protein D (SP-D), rat, recombinant; It has the N-terminal cysteines 15 and 20 and the head domain, so it is probably the whole mature chain; also called rSP-D; RrSP-D; source: recombinant) AEMKTLSQRSITNTCTLVLCSPTENGLPGRDGRDGREGPRGEKGDPGLPGPMGLSGLPGPRGPVGPKGENGSAGEPGPKGERGLVGPPGSPGISGPAGKEGPSGKQGNIGPQGKPGPKGEAGPKGEVGAPGMQGSAGAKGPAGPKGERGAPGEQGAPGNAGAAGPAGPAGPQGAPGSRGPPGLKGDRGAPGDRGIKGESGLPDSAALRQQMEALNGKLQRLEAAFSRYKKAALFPDGQSVGDKIFRAANSEEPFEDAKEMCRQAGGQLASPRSATENAAVQQLVTAHSKAAFLSMTDVGTEGKFTYPTGEALVYSNWAPGEPNNNGGAENCVEIFTNGQWNDKACGEQRLVICEF	3
